Assay results: paper PMC12726774, “HAEEPGP Peptide Efficiently Prevents Alzheimer's Disease Pathology in Vivo” (Alzheimer's & Dementia, 2025)

Target: beta-amyloid (Aβ) peptide
Assay: ITC; isothermal titration calorimetry of HAEEPGP with Aβ peptides; also with zinc ions, which enhanced the interaction; which peptide was titrated, buffer and temperature not told
Conditions: both partners purified

- Kd: 1640 nM
B1: HAEEPGP peptide (peptide)
peptide: HAEEPGP
notes: HAEE tetrapeptide with PGP amino acids added to its C-terminus to stabilize the peptide; The 125I label was used for pharmacokinetics only, not for the calorimetry
